Source: the supplement of paper PMC12042874
± gives the uncertainty stated by the source.

Assay: amyloid nucleation score (Sup35N fusion, yeast selection) (log enrichment); library NNK1; higher = more nucleation; inactive = no reads after selection
Method in brief: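 The nucleation score is the log enrichment of output over input reads, calculated with DiMSum and centred on the mode score of non-aggregating sequences. Sequences with under 100 input reads were excluded. Reads came from Illumina sequencing of plasmid inserts from psi-negative yeast expressing Sup35N fused to peptides of 20 random codons, induced 24 hours with 100 μM copper sulfate and grown 7 days at 30°C without adenine and uracil.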

Substance	amyloid nucleation score
LEMVINSFRELSLAY	-0.212 ± 0.46
LFCDPAFGKHLCFRNAFCWF	0.255 ± 0.23
LFDDS	-0.356 ± 0.46
LFDSLEAVYRSYGKSWACYI	-1.63 ± 0.9
LFDVYN	-0.549 ± 0.49
LFEGHLTSISEPGVVDRSIR	-0.573 ± 1.7
LFESGSRDFLRQKLTFGTVP	0.066 ± 0.7
LFGGFMFLGKWDQLHGHNEC	0.799 ± 0.49
LFGPDLSTRNPGDVSVQSAA	0 ± 0.39
LFGVFGFISVVSFSP	-0.455 ± 1.7
LFKNRVRLLLHERSLLPVII	0.469 ± 0.68
LFKYYNWVGTLVTYIMIYVW	-1.62 ± 0.62
LFLKFGGSFAVIFWILVAAV	0.74 ± 0.48
LFLLSTSESCFQCATPANDN	-0.222 ± 0.59
LFNILASFSYFAFYYLLLLS	-0.492 ± 0.8
LFQSA	0.854 ± 0.17
LFRGT	-0.457 ± 0.27
LFRYNDWCAYHLPSPWWGNR	0.112 ± 0.83
LFSIGALY	-0.035 ± 0.2
LFSLNTLCM	0.985 ± 0.51
LFWSET	-0.526 ± 0.81
LFYDDEES	inactive
LGCFGIAATKIRKVDMRLGG	0.729 ± 0.39
LGCLYIA	-0.711 ± 0.44
LGIYNGEASRWYRESTPAQ	-0.443 ± 0.92

Substance	amyloid nucleation score
LGKPVWVQEAKLDADNLWCV	-0.438 ± 0.49
LGKQAMC	-1.34 ± 2.4
LGLRGKKLRIINAPYTTGRN	-0.64 ± 0.98
LGMSKLIMSNNVFNIFDSHP	0.847 ± 0.9
LGPDSLHLFGMVGSGRLNIL	-0.029 ± 0.88
LGQHRKPSYKHSAKHKLFVD	0.519 ± 0.36
LGRGRKSTMVSQRVERAGVC	-0.626 ± 0.58
LGRGSAVSSPWVIIRIVNML	0.784 ± 0.72
LGSWARD	-0.27 ± 0.54
LGTTDPYVYSIIMYAFLWIY	0.386 ± 0.47
LGVQFSGRLSVPVYFMWFTL	0.814 ± 0.61
LGVRRPQEISCHADHASRWL	-0.776 ± 1.3
LGVVFGRRVHCRLASSVMNM	-0.723 ± 1.5
LGYIVRFQCMYTRRYCSCPD	-1.47 ± 2.7
LHGPWVVYFELSSIFTLTYQ	-0.478 ± 0.29
LHKIHNAIDILS	0.504 ± 0.56
LHLPHLRIRTNYSGLILSVM	-0.513 ± 0.56
LHLRTVAGSWSNIFYLAAPM	0.433 ± 0.31
LHQSVMRWLAASWCPQIKLG	0.338 ± 0.97
LHSPDFDLYYVLRILACDTQ	-0.866 ± 1.7
LHSSMNCRWIHTL	0.618 ± 0.47
LHTTKK	0.293 ± 0.48
LHVEWSASMSMFCLNHRIAA	-0.172 ± 0.61
LHYCTCSIRSIF	0.325 ± 0.6
LICLGRPTSNTELGMNDINF	-0.349 ± 0.84

Substance	amyloid nucleation score
LIDLSSIKSWHVFSKALCGR	0.006 ± 0.27
LIGQLIFRPVNGARKIPV	-0.31 ± 0.29
LIHYNNNVYTRWAWSSQQGE	2.75 ± 0.2
LILFLASV	1.35 ± 0.27
LILKISMMGK	inactive
LIMSFVFSI	4.57 ± 0.08
LIPSRFMVNGDTIL	0.971 ± 0.28
LIQRLVFEYMFPVIGVPISW	-0.208 ± 0.65
LIRTLANWLSIPHVLI	-0.351 ± 0.3
LISYRYFFCHRECVLVIGSN	0.327 ± 0.6
LITYLRLFYRITVRTG	0.48 ± 0.4
LIVNLKICAVHVGYHWGWRA	0.653 ± 0.29
LIWWFEGRPRVSGGFSVFDV	-0.304 ± 1.1
LKASMW	0.322 ± 0.37
LKCFLINVMLLEMLPFWDRS	1.62 ± 0.55
LKGHLHDSILQCRHKALFF	0.922 ± 0.75
LKHPDIYRKVERKVRVNMFF	-0.792 ± 0.31
LKHRRSWYLTYIDCAGM	-0.294 ± 0.43
LKKHADNSLDVRS	inactive
LKLGYMNLLISDRCAVIERY	0.969 ± 0.81
LKRDVTSVSGY	0.348 ± 0.38
LKRFMDTDYYFMMKCCTSN	0.843 ± 0.55
LKYKKLPFIKRDEKFPTNRN	0.398 ± 0.54
LLAFL	-0.704 ± 0.55
LLDMHYTLEWCTKCYTDKVQ	0.121 ± 0.26

Substance	amyloid nucleation score
LLDVLMDGRFSFVQRYCRAD	1.05 ± 0.2
LLESFTG	-0.392 ± 0.46
LLGYRTYEMEHSCILRPRNK	0.887 ± 0.57
LLITNGMSNDGNQCSS	inactive
LLKIGVA	-0.465 ± 1.5
LLLYLTLAIGSRLCRELPQR	0.523 ± 0.43
LLMAIVCIMIRQGFLRHVSP	-0.086 ± 0.56
LLMPDSNG	-0.699 ± 0.3
LLMYKKCRQWGCGNVSCSFD	7.086 ± 0.065
LLNDSINNPQCFIVSSSGHL	-0.541 ± 0.39
LLNFFK	0.609 ± 1.1
LLNGEQLQSSDNIRLWIAFR	0.151 ± 0.41
LLRMIKICYDLRSNLDSWRS	-0.529 ± 1.7
LLRRLTTI	0.696 ± 0.52
LLSFLRSAKIQTGR	0.229 ± 0.38
LLSLFRYN	0.537 ± 1.1
LLSYPIPDMYSIEATTKRRI	0.133 ± 1.4
LLVLSLINFFFKKRAFCPIT	2.11 ± 0.6
LLVSVFTRYFPGNVRVTWGT	-0.21 ± 0.32
LLVVRNLEGNNIHALVLCVG	1.91 ± 0.21
LLYGA	-0.727 ± 1.4
LLYIILFRNYILYKLWIRFA	0.572 ± 0.3
LLYPHSTSRGLIMTFYPKSG	0.54 ± 0.6
LLYTVY	-0.849 ± 1.2
LMESVAVFPNSRLPILTEC	-0.011 ± 0.56

Substance	amyloid nucleation score
LMGECGLSFLTPY	0.275 ± 0.84
LMNVVLISHKSFVYSR	-1.16 ± 2.7
LMPARLNYERTALSMPKWSE	-0.38 ± 0.63
LMQLHCLARSLYPFPWSGPT	1.96 ± 0.42
LMRRGGCVYVGFFWELVCFQ	-0.524 ± 0.83
LMSLVNPTRVSLFFDH	-0.11 ± 0.68
LMVNLYPY	0.16 ± 0.4
LMVYK	0.575 ± 0.55
LMYKICTLVRRLHLSRYKNM	-1.27 ± 1.7
LNATGSLPYDIMECTKELWP	-0.343 ± 0.7
LNEHLFR	0.615 ± 0.87
LNFVNAPRSHMSGYSIGGLC	-1.5 ± 1.7
LNGIFNNPY	-0.512 ± 0.78
LNGRYLDVLHQVIHQNVREP	3.01 ± 0.22
LNGTLSCNAISFFIMFA	0.846 ± 0.44
LNIEVFNFICNRRAIWMRFA	0.684 ± 0.53
LNINSKYLNLICYHIRHLAV	-0.593 ± 0.78
LNMHSR	inactive
LNNAGTFFLPEVFRLRWTNV	0.018 ± 0.93
LNNLCNGMGGL	-0.78 ± 0.53
LNNLVFVLLV	3.37 ± 0.09
LNSLPLSTVLYSFRVMYWMY	inactive
LNSLVKALQSVNNYVDLTYS	0.358 ± 1.1
LNVYWRPCNN	0.717 ± 0.9
LPCSRRTTPSDVCP	-0.271 ± 0.36

Substance	amyloid nucleation score
LPDNSIYRYLSY	0.149 ± 0.42
LPGDDTSCEDLSGGVPLWNG	inactive
LPGFYDRKICKSLSMIYRLS	-0.405 ± 1.7
LPGTSRRASRCLFACYVDMS	0.676 ± 0.39
LPIVGFSCFEFIMIERMRLV	inactive
LPKKDNHSSTNA	-1.77 ± 2.4
LPVLSGWTNTAA	-0.73 ± 0.59
LQKVFLAVDSYW	-0.347 ± 0.92
LQLIGYRDNWSGVMFYLERG	0.838 ± 0.55
LQLTYPPLVVPSSRWCLLLS	-0.099 ± 0.97
LQLYQVFSVHYEC	3.08 ± 0.11
LQNVGRENEESTCERRSKVY	inactive
LQTGRYDWKVDPINSSMESV	0.26 ± 0.7
LQYGNWPGGVFVWWFIKMHH	-0.02 ± 0.71
LRCVLQSRRWEIGMLRLTER	-0.267 ± 0.35
LRGIDRTALGSGSERYLCLL	-0.253 ± 0.59
LRHRKSRNRVSCHCLGHGCW	1.54 ± 0.84
LRIDFGDATSVGRRRFMCTV	-0.199 ± 1.5
LRKGTVRLSSFEKWYMVRTG	-0.701 ± 0.7
LRKMLMDE	inactive
LRLENAQLSFTFEYWILYG	-0.475 ± 1.7
LRLIV	0.113 ± 0.89
LRLNDSSLRIPEAA	-0.107 ± 0.44
LRMNLSRKPANFCFKCIIGK	-0.348 ± 0.5
LRNSHNVGEQFCISVRDSLG	0.007 ± 0.69

Substance	amyloid nucleation score
LRNVYLSGKFVYRGELNCET	0.95 ± 0.31
LRRGMQHAFADSENFVGSHV	-0.168 ± 1.3
LRRPVRSTLNGMRMSQHTRR	-0.164 ± 0.66
LRSFW	inactive
LRSKCECNTRGSCAWWCSDA	1.1 ± 0.9
LRSMCSCHVRPIYPFCGHY	0.242 ± 0.81
LRTKSLWSF	-0.515 ± 0.59
LRVNGEKIKASLPFEGD	0.197 ± 0.51
LRVVYPGPSYAGASDLSSMR	-0.926 ± 0.63
LSCDVQWLCLESNCE	3.96 ± 0.07
LSDWYNLRRWRTVTWAQQLH	-0.4 ± 1.3
LSEDVHRTVVRYWMKSRR	1.74 ± 0.31
LSEWNPSLVCMERTLHCS	0.493 ± 0.25
LSFAKGSVFITGDCISGTVD	-1.49 ± 1.7
LSFETRRWMYYIS	0.446 ± 0.24
LSFIACPYIVRVYAFNPRTG	6.16 ± 0.071
LSFMMRGSIHWPLTTLRACS	1.05 ± 0.6
LSGDIFRNHMNRFYL	-0.071 ± 0.27
LSGFKMFIGNYITVV	-0.779 ± 0.78
LSHGSIQMVYPELR	-0.829 ± 1.6
LSKKFWRFVWARLSEELIER	0.811 ± 0.51
LSLDRNVATHKGSYPEWDNF	0.752 ± 0.23
LSLILFVCRIYTYSCSHRAL	0 ± 0.36
